Key:
[1] = molecular target: T1, Arabidopsis thaliana DECREASE IN DNA …ON 1 (DDM1), full length (Arabidopsis thaliana, UniProt Q9XFH4 1-764); experiment: cross-linking; nucleosomes (0.2 µM) with AtDDM1 (0.4 µM), 60 mM NaCl, 1 mM MgCl2, 1 mM ADP, pH 7.5, 25 °C; 1.6 mM DSS-H12/D12 (lysine-lysine), LC-MS/MS, xQuest/xProphet; details: both partners purified
T1 construct: DDM1, Snf2-type chromatin remodeling factor, Arabidopsis thaliana, full length; His6-SUMO removed with HRV 3C protease; also called AtDDM1; source: E. coli BL21(DE3) Codon(+) RIL, purified (Ni-NTA, RESOURCE Q flow-through, RESOURCE S, Superdex 200); not shown: His6, N-terminal, cleaved; SUMO, N-terminal, cleaved

[2] = molecular target: T2, Arabidopsis thaliana histone H3.1 (Arabidopsis thaliana, UniProt P59226 1-136); experiment: as above; details: both partners purified
T2 construct: His6 tag removed with thrombin (pET-15b); also called AtH3.1; source: E. coli BL21(DE3) Codon(+) RIL, purified (Ni-NTA and SP cation exchange, denaturing); in reconstituted nucleosomes; not shown: His6, N-terminal, cleaved

T1 sequence (Q9XFH4 whole entry): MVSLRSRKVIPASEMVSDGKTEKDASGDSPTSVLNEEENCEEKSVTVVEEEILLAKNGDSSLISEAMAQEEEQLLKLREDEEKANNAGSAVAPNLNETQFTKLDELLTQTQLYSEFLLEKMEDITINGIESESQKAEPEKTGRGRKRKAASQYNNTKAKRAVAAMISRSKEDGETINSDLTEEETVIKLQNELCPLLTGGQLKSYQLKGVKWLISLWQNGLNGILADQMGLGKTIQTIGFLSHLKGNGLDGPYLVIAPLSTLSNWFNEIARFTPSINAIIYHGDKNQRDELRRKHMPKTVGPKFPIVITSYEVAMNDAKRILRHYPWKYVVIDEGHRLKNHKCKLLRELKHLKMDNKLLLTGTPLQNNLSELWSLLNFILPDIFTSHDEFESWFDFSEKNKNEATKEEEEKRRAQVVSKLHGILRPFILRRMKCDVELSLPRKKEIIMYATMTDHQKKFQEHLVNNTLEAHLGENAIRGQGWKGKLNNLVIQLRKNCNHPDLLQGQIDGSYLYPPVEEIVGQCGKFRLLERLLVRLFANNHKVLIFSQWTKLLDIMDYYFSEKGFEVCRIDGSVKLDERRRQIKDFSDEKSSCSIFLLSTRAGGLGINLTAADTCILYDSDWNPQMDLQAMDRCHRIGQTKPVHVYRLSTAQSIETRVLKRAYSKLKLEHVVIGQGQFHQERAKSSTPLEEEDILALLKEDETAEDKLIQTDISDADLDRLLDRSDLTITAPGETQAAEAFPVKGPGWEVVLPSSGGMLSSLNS

B1: Arabidopsis thaliana histone H2A.W.6 (natural protein)
chain: MESTGKVKKAFGGRKPPGAPKTKSVSKSMKAGLQFPVGRITRFLKKGRYAQRLGGGAPVYMAAVLEYLAAEVLELAGNAARDNKKSRIIPRHLLLAIRNDEELGKLLSGVTIAHGGVLPNINSVLLPKKSATKPAEEKATKSPVKSPKKA
notes: His6 tag removed with thrombin (pET-15b); also called AtH2A.W; AtH2A.W.6; source: E. coli BL21(DE3) Codon(+) RIL, purified (Ni-NTA and SP cation exchange, denaturing); in reconstituted nucleosomes; not shown: His6, N-terminal, cleaved
B1: binds [1]; binds [2].

From PMC11239853, “Molecular and structural basis of the chromatin remodeling activity by Arabidopsis DDM1” (Nature Communications, 2024)
